Results: patent US20190391146A1

Target: Mycobacteria modified Low Density Lipoprotein (MtLDL) (human) (UniProt P04114)
Assay: sandwich ELISA, value told of the pair No. 6 with No. 8

Binder | specific signal, fold above native LDL background
bivalent Fab No. 8 (HCVR SEQ ID NO: 5 / LCVR SEQ ID NO: 6) (Fab, V domains shown) VH: QVQLVQSGAEVKKPGSSVKVSCKASGGTFSGYYISWVRQAPGQGLEWMGGIIPISGRANYAQKFQGRVTITADESTSTAYMELSSLRSEDTAVYYCARSRSYYHFDLWGQGTLVTVSS VL: DIALTQPASVSGSPGQSITISCTGTSSDVGRYNSVSWYQQHPGKAPKLMIYRVSKRPSGVSNRFSGSKSGNTASLTISGLQAEDEADYYCQSWASLSNVVFGGGTKLTVLG | > 4 fold
bivalent Fab No. 6 (HCVR SEQ ID NO: 3 / LCVR SEQ ID NO: 4) (Fab, V domains shown) VH: EVQLLESGGGLVQPGGSLRLSCAASGFTFRGYYMSWVRQAPGKGLEWVSSISGFSSNTYYADSVKGRFTISRDNSKNTLYLQMNSLRAEDTAVYYCARVRYLAYAFDYWGQGTLVTVSS VL: DIELTQPPSVSVSPGQTASITCSGDSLPDKRAYWYQQKPGQAPVLVIYGDSHRPSGIPERFSGSNSGNTATLTISGTQAEDEADYYCSSWGSRTWVFGGGTKLTVLG | > 4 fold
